IntAct's records for PubMed 26635368

Molecular target: spre1_human SPRED1 (UniProt Q7Z699)
Sequence (Q7Z699 whole entry): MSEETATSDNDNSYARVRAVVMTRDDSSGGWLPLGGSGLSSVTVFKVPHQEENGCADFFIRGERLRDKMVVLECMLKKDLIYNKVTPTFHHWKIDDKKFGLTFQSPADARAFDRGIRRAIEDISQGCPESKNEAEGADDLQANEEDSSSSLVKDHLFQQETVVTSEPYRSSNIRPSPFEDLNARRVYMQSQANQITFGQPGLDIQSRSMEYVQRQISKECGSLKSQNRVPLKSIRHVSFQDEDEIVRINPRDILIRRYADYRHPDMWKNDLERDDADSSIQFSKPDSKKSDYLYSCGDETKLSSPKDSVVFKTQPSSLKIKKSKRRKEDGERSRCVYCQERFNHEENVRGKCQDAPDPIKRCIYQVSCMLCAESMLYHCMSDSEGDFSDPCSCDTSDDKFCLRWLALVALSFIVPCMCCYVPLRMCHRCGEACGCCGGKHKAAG

Row | Substance | effect of a mutation on the interaction
1 | Neurofibromin (Homo sapiens), P21359 A1202S | with no effect
2 | Neurofibromin (Homo sapiens), P21359 R1204G | with no effect
3 | Neurofibromin (Homo sapiens), P21359 R1204L | decreasing interaction strength
4 | Neurofibromin (Homo sapiens), P21359 Q1515R | with no effect
5 | Neurofibromin (Homo sapiens), P21359 L1208W | decreasing interaction strength
6 | Neurofibromin (Homo sapiens), P21359 G1519E | with no effect
7 | Neurofibromin (Homo sapiens), P21359 D1217G | disrupting interaction strength
8 | Neurofibromin (Homo sapiens), P21359 L1211R | with no effect
9 | Neurofibromin (Homo sapiens), P21359 R1204W | decreasing interaction strength

Molecular target: spre1_human SPRED1 (UniProt Q7Z699)
Remark: another data set of the same source

Row | Substance | effect of a mutation on the interaction
10 | Neurofibromin (Homo sapiens), P21359 L1511P | decreasing interaction strength
11 | Neurofibromin (Homo sapiens), P21359 R1276P | with no effect
12 | Neurofibromin (Homo sapiens), P21359 D1217G | decreasing interaction strength
